Legend:
[1] = biological target: Polr2a (mouse, endogenous) (mouse, UniProt P08775 1-1970); experiment: co-IP, endogenous proteins, mouse pancreatic tissue
[2] = biological target: T1, AGR2 (human, endogenous in PDAC cells) (human, UniProt O95994 21-175, limits assumed); experiment: co-IP competition in PDAC cells, dose-dependent inhibition of POLR2A-AGR2 binding
T1 construct: Endogenous protein co-immunoprecipitated from Capan2 cell lysate
T1 sequence (looked up): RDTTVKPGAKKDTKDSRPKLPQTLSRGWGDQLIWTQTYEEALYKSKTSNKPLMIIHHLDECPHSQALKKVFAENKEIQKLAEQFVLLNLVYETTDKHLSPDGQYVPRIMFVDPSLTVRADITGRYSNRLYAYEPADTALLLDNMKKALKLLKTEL

[3] = biological target: T1, AGR2 (human, endogenous in PDAC cells); experiment: co-IP competition in Capan2 cells (FIG. 5B)

B1: Agr2 (mouse, endogenous) (other)
chain: KDTTVKSGAKKDPKDSRPKLPQTLSRGWGDQLIWTQTYEEALYRSKTSNRPLMVIHHLDECPHSQALKKVFAEHKEIQKLAEQFVLLNLVYETTDKHLSPDGQYVPRIVFVDPSLTVRADITGRYSNRLYAYEPSDTALLYDNMKKALKLLKTEL
notes: Endogenous protein co-immunoprecipitated from mouse pancreatic tissue lysate
[1]
  binding result: binds

B2: hexapeptide PTTIYY (SEQ ID NO:4) (peptide)
peptide: PTTIYY
notes: Synthetic, previously described peptide used as positive control; liposome-encapsulated form; also called bioactive hexapeptide; positive control
[2]
  binding result: binds

B3: hexapeptide NTAIYY (SEQ ID NO:2) (peptide)
peptide: NTAIYY
notes: also called bioactive hexapeptide
[3]
  binding result: binds

Reference: patent publication US20240190915A1 (KLINIKUM RECHTS DER ISAR DER TECHNISCHEN UNIVERSIT T M NCHEN, published 2024)
